Where a chain is given by its changes, count along the chain named.
Target: SARS-CoV-2 RBD protein (SARS-CoV-2, UniProt P0DTC2)
Assay: ELISA
Conditions: both partners purified

B1: 1F mutated at R102 (antibody, V domains shown)
VH: EVQLVESGPGLVKPSETLSLTCTVSGGSISSSSYYWGWIRQPPGKGLEWIGSIYYRGSTYYNPSLKSRVTISVDTSKNQFSLKLSSVTAADTAVYYCARHVASAYYYGSGSYRDEGNWFDPWGQGTLVTVSS
VL: QSVLTQPPSVSGAPGQRVTISCTGTRSNIGAGHDVHWYQQLPGTAPKLLIYGNNNRPSGVPDRFSGAKSGTSASLAITGLQAEDEADYYCQSYDRTLTSYVFGTGTKVTVL
notes: also called mutated 1F (R102)
- binding result: no binding

B2: 1F mutated at D114 (antibody, V domains shown)
VH: B1 VH with A102R, D114A
VL: B1 VL
notes: also called mutated 1F (D114)
- binding result: no binding
